What was measured:
[1] = biological target: T1, human recombinant G-protein alphai1 fused at the N-terminal with a Tag Twin-Strep-tag (TST-G protein alphai1) (human, UniProt B2RSH2 1-354 (mouse entry)); assay: HTRF (TR-FRET) titration of antibody-d2 on 2.5 nM Twin-Strep-tagged Gαi1 with anti-Twin-Strep-tag-Lumi4 Tb; condition: GDP 10 µM
T1 construct: Purified protein made in Sf9 insect cells; also called G-protein αi1; protein Gαi1
Description: (§1) These two reagents were prepared in one and the same solution and were preincubated for 30 minutes at room temperature before being distributed in the wells. The antibodies DSV36S-d2, DSV38S-d2 and SC13533-d2 were prepared 4× for final concentrations in the wells between 0.01 and 10 nM depending on the antibodies.
(§2) Moreover, the antibody titration curves obtained make it possible to calculate the affinity (Kd) of these different antibodies for the G-protein αi1. This was carried out using the GraphPad Prism software by applying a “one site specific binding” model to the HTRF data.

[2] = biological target: T1, human recombinant G-protein alphai1 …; assay: HTRF (TR-FRET) titration of antibody-d2 on 2.5 nM Twin-Strep-tagged Gαi1 with anti-Twin-Strep-tag-Lumi4 Tb; condition: Buffer only
Description: as §1, §2

[3] = biological target: T1, human recombinant G-protein alphai1 …; assay: HTRF competition on Gαi1 + GTPgS: unlabeled antibody varied against DSV36S-d2 (10 nM), detection with anti-Twin-Strep-tag-Lumi4 Tb
Description: (§3) These two reagents were prepared in one and the same solution and were preincubated for 30 minutes at room temperature before being distributed in the wells. The cold antibodies DSV36S, DSV38S, DSV26S, DSV3S, and DSV39S were prepared 4× for final concentrations in the wells between 0.001 and 1 μM. The antibody DSV36S-d2 was prepared 4× for a final concentration of 10 nM.
(§4) 1) 10 μl of the preincubated mixture of G-protein αi1 +GTPgS was put in each well, 2) 5 μl of the unlabeled antibodies DSV36S, DSV38S, DSV26S, DSV3S, and DSV39S was added to each well, 3) The plates were incubated for 30 minutes at room temperature, 4) 5 μl of the anti Twin-Strep-tag-Lumi4 Tb antibody and of the antibody DSV36S-d2 were added to each well.

[4] = biological target: T1, human recombinant G-protein alphai1 …; assay: HTRF competition on Gαi1 + GTPgS: unlabeled antibody varied against 36S-d2 (DSV36S-d2, 10 nM), detection with anti-Twin-Strep-tag-Lumi4 Tb
Description: as §3, §4

[5] = biological target: T1, human recombinant G-protein alphai1 …; assay: HTRF (TR-FRET) titration of antibody-d2 on 2.5 nM Twin-Strep-tagged Gαi1 with anti-Twin-Strep-tag-Lumi4 Tb; condition: GTP 10 µM as printed (the protocol names GTPgS)
Description: as §1, §2

T1 sequence (B2RSH2 whole entry, the tested form may be a part): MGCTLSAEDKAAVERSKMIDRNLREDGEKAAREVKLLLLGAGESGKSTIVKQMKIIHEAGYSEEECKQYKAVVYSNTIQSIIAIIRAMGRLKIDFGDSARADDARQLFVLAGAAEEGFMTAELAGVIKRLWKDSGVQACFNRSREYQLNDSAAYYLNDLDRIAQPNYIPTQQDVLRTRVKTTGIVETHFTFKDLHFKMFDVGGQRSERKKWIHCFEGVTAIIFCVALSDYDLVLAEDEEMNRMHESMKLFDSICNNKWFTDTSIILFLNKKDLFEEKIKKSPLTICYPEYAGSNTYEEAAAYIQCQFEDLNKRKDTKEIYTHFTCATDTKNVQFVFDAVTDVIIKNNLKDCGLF

B1: antibody DSV36S (antibody, V domains shown)
VH: EVQLQQSGAELVRPGALVKLSCKASGFNIKDYYMHWVKQRPEQGLEWIGWIDPENGNTIYDPKFQGKASITADTSSNTAYLQLSSLTSEDTAVYYCTRGGGYYSDWYFDVWGAGTTVTVSS
VL: QIVLTQSPAIMSASPGEKVTMTCSASSSVSYMHWYQQKSGTSPKRWIYDTSKLASGVPARFSGSGSGTSYSLTISSMEAEDAATYYCQQWSSNPPITFGAGTKLELK
notes: Used unlabeled or labeled with d2 (acceptor) or Lumi4Tb (donor); also called DSV36S-d2; DSV36S-Lumi4Tb
Kd [1]: 0.48 nM
Kd [2]: 0.82 nM
IC50 (read off the curve) [3]: ~0.5 nM
IC50 (read off the curve) [4]: ~0.5 nM
Kd [5]: 0.31 nM

Source: patent publication US20230091315A1 (CISBIO BIOASSAYS, published 2023)
